# System: CC(=O)O[C@H]1C(=O)[C@@]2(C)[C@H]([C@H](OC(=O)c3ccccc3)[C@]3(O)C[C@H](OC(=O)[C@H](O)[C@@H](NC(=O)c4ccccc4)c4ccccc4)C(C)=C1C3(C)C)[C@]1(OC(C)=O)CO[C@@H]1C[C@@H]2O
# Assay: TP_TRANSPORTER: uptake in MDR1-expressing MCF7 cells
# Assay type: functional, cell-based
substance,measurement,value
ATP-dependent translocase ABCB1 (Homo sapiens),Km,0.014 µM
